# Assay results taken from patent US20080311122A1 (AstraZeneca / MedImmune, published 2008).
# T1: HMGB1 in joint lysates of adjuvant induced arthritis (AIA) rats (rat, UniProt P63159 2-215)
# T1 construct: also called HMGB1 from arthritis joints; AA joint lysates
# T1 sequence (looked up): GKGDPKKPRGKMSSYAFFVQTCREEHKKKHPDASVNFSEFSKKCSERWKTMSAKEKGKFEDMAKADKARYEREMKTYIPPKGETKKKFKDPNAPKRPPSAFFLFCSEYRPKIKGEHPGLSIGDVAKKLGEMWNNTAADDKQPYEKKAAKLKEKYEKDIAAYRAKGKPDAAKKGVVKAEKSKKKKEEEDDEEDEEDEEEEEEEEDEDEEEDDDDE
# B1: anti-HMG1 antibody G4 (antibody, V domains shown)
# VH: EVQLLESGGGLVQPGGSLRLSCAASGFTFSWYDMTWVRQAPGKGLEWVSSISPSGGYTKYADSVKGRFTISRDNSKNTLYLQMNSLRAEDTAVYYCTTEFYDYLDVWGKGTTVTVSS
# VL: DIQMTQSPGTLSLSPGEGATLSCRASQSVSSTYLAWYQQKPGQAPRLLIYEASKRATGTPARFSGSGSGTDFTLSISSLEPEDFAVYYCQHRHNWPPQWTFGQGTKVEVK
# notes: also called ATCC PTA-6258
# Target: T1, HMGB1 in joint lysates of adjuvant …
# Test: sandwich ELISA and immunoprecipitation with Western blot
# Protocol: HMGB1 Detection from Biological Samples: For detection of the HMGB1 from AA joint homogenates and peritonitis sera, sandwich ELISA was performed. Goat anti-human Fc (Pierce) 14 μg/ml in PBS was coated on Immunlon IV microtiter plate over night at 4° C. After washing and blocking with 5% milk 1 hr at room temperature, G4 or S6 in blocking buffer (10 μg/ml) were added to each well of the blocked plate. The plate was washed 1 hour later and 25 μl of AIA homogenates containing 0.8 μg/ml of HMGB1 or peritonitis sera containing 7 μg/ml of HMGB1 in 0.5 M NaCl/blocking buffer were added to the wells at two fold serial dilutions. The unbound materials were removed by washing one hr after incubation. The bound HMGB1 was detected by a mouse anti-HMGB1 antibody at 2 μg/ml followed by an anti-mouse antibody conjugated with horseradish peroxidase. Mouse peritonitis sera was obtained by heart puncture 7 days after infection with heat killed staphylococcus aureus. Joint lysate was prepared from the whole paw of AIA rats as described in Example 6 below. Human sepsis sera were purchased from a commercial source.
# Immunoprecipitation and Western Blot: Anti-HMGB1 mAbs (G4 and S6) and isotype control were first biotinylated using EZ-Link Sulfo-NHS-LC-Biotin as instructed by the manufacturer (Pierce). After labeling, the mAb was tested for binding to HMGB1 by ELISA with unlabeled mAbs as controls. […]
binder,measurement,value
B1,binding result,binds
